Values of other authors as cited in patent publication US20230312927A1, “POLY(SARCOSINE) POLYMER EXCIPIENTS” (CALUSA BIO, LLC, priority 2021, published 2023).

System: anti-drug antibodies (ADAs)
Details: share of anti-drug antibodies that are neutralizing; van Schie et al. Ann. Rheum. Dis. 2015

adalimumab [Humira]
ADAs shown to be neutralizing: 97%

infliximab [Remicade]
ADAs shown to be neutralizing: 90%
